# Test results from article PMC11731006, “Structural insight into Okazaki fragment maturation mediated by PCNA-bound FEN1 and RNaseH2”.
# B1: 5'-FAM 20 bp dsDNA (dsDNA)
# DNA 1: CGGTTATAGGTTCACGGGGT
# DNA 2: ACCCCGTGAACCTATAACCG
# Target: RNaseH2 complex (RNaseH2A/RNaseH2B/RNaseH2C), wild type;PCNA (Homo sapiens;Homo sapiens, UniProt O75792;Q5TBB1;Q8TDP1;P12004 1-299;1-312;1-164;1-261, |)
# Test: EMSA; 100 nM PCNA; 2 mM MgCl2; 100 nM DNA; 0.4-1.0 uM RNaseH2; PCNA raises binding (p 0.025, 0.010, 0.003 at 0.6, 0.8, 1.0 uM; ns at 0.4 uM); EMSA: 25 mM Tris pH 7.5, 100 mM NaCl, 10% glycerol, 2 mM MgCl2, 30 min at RT; 5% native TBE-PAGE at 4 C. Cryo-EM structures (8YJH-8YJZ) carry endogenous DNA of
# Details: protein: recombinant;recombinant; tags: N-terminal 6xHis (each subunit as stated);N-terminal 6xHis; copies: 1;1;1;3; blunt
# Sequence of RNaseH2 complex (RNaseH2A/RNaseH2B/RNaseH2C), wild type;PCNA (O75792 whole entry, chain 1 of 4): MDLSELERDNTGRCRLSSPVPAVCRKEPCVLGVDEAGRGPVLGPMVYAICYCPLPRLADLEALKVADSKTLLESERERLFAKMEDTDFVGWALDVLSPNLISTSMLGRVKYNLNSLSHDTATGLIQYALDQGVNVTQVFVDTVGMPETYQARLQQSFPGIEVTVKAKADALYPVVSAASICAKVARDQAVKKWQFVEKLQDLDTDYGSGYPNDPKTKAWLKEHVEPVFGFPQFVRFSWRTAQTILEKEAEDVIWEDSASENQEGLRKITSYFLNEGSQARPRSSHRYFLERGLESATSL
# Sequence of RNaseH2 complex (RNaseH2A/RNaseH2B/RNaseH2C), wild type;PCNA (Q5TBB1 whole entry, chain 2 of 4): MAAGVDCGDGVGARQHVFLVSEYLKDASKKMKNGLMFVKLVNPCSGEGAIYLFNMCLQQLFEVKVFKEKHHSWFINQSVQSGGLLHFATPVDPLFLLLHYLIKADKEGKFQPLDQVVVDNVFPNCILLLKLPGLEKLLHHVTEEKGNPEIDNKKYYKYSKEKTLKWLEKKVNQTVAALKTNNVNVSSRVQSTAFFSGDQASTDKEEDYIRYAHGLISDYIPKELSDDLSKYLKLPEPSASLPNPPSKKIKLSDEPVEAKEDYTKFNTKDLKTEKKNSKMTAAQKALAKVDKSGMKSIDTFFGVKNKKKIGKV
# Sequence of RNaseH2 complex (RNaseH2A/RNaseH2B/RNaseH2C), wild type;PCNA (Q8TDP1 whole entry, chain 3 of 4): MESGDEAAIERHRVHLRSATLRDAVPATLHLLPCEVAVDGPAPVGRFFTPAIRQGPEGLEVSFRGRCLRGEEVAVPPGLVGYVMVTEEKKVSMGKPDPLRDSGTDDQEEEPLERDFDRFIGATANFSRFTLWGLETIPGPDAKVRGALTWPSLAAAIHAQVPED
# Sequence of RNaseH2 complex (RNaseH2A/RNaseH2B/RNaseH2C), wild type;PCNA (P12004 whole entry, chain 4 of 4): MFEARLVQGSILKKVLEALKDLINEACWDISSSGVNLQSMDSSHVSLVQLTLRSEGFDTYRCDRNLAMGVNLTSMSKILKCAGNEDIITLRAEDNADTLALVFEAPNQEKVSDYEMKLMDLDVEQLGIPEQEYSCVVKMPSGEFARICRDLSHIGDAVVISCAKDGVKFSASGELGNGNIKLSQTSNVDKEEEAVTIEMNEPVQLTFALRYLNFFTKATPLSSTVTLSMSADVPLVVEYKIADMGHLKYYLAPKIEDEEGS
binder,measurement,value
B1,binding result,binds
